Source: PMC3458530

T1: M.HhaI (bacterial (species ), UniProt P05102 1-327)
T1 sequence: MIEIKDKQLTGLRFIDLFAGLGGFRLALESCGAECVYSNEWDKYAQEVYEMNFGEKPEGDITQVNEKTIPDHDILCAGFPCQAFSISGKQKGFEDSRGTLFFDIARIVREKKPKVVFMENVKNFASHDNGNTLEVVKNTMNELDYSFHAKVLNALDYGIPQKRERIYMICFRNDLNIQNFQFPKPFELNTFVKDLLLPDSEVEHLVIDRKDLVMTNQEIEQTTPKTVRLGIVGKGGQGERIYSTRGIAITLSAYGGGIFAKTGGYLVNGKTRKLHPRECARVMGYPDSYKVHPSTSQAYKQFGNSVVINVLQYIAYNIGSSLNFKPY


Legend:
Experiment in all cases: EMSA
DNMT3A full-length = DNMT3A full-length (human, UniProt Q9Y6K1 1-912)
Chain of DNMT3A full-length (Q9Y6K1 whole entry, the tested form may be a part): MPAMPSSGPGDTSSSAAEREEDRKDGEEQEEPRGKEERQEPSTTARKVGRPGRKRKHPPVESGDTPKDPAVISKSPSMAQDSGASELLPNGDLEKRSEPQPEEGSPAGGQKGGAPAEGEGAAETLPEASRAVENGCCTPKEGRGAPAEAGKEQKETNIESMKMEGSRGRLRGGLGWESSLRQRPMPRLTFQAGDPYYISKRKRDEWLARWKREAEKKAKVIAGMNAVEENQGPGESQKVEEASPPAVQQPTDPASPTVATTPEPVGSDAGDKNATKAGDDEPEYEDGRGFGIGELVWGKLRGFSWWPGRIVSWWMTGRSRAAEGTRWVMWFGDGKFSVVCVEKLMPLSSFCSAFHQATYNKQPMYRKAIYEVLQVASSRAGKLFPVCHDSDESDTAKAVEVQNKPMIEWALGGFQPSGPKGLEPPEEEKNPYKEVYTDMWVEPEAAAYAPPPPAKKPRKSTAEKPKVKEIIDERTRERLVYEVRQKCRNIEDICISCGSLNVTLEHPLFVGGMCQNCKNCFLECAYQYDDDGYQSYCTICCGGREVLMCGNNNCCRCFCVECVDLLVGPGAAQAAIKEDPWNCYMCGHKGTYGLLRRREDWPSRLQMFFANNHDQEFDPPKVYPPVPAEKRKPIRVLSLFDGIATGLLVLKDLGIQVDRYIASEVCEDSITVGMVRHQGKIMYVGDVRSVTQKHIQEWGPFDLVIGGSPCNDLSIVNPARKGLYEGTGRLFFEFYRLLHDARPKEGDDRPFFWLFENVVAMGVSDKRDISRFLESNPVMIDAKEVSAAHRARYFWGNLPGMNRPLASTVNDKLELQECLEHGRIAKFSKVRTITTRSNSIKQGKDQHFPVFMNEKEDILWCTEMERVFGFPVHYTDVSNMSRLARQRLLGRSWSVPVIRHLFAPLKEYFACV

[1] = target: DNMT3A catalytic domain (cDNMT3A) (human, UniProt Q9Y6K1 612-912)
Chain of DNMT3A catalytic domain (cDNMT3A) (Q9Y6K1 612-912): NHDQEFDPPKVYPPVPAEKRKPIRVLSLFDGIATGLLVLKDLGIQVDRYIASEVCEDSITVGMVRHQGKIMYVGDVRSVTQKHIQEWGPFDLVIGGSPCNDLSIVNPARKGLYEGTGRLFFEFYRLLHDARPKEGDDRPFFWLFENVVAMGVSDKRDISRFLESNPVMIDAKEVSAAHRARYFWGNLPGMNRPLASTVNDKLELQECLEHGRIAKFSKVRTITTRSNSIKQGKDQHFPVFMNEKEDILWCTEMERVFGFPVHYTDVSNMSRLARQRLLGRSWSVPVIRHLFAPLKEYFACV

M.HhaI = target: T1, M.HhaI

| Binder | Kd (DNMT3A full-length) | binding result [1] | binding result (M.HhaI) |
| --- | --- | --- | --- |
| NUP153 duplex siRNA (dsRNA, 3' dTdT on both strands (DNA residues)) RNA 1: ACCAAAUAAAACUGGCAAATT RNA 2: UUUGCCAGUUUUAUUUGGUTT | 520 nM | – | – |
| GAGUUUACCCCGCGCCACCUU (ssRNA) [EFS1 (ssEF1a RNA)] | 690 nM | no binding | no binding |
